The test system of series [1] is CC(=O)N[C@H]1[C@H]([C@H](O)[C@H](O)CO)O[C@](OP(=O)(O)OC[C@H]2O[C@@H](n3ccc(N)nc3=O)[C@H](O)[C@@H]2O)(C(=O)O)C[C@@H]1O. The experiment in a line: purified protein, by the assay type. The settings on record: other: room temperature, substrate 0.1 to 30 mM.
Series [2] has as its system Photobacterium damselae α-2,6-sialyltransferase (α2,6PdST), all mutants of Table 3 (I411T, L433S, L433T, I411T/L433S, I411T/L433T). Nature of the series: kinetic parameters for α-2,6-sialyltransferase, all mutants (summary). The class given is biochemical. The settings on record: all mutants vs wild type. How it is done: The kinetic parameters, kcat and Km, were obtained from nonlinear regression analysis of Michaelis-Menten equation using Sigma Plot (SigmaPlot) program.
In order to appreciate the effect of each mutation on the donor substrate and the acceptor substrate, kinetic parameters for a single amino acid substitution mutant and a combinatorial mutant were measured.

Series [3] deals with α-2,6-sialyltransferase. The text has this: The entire vector was subjected to PCR using a primer into which NNK sequence (a sequence where N is A, C, G or T, K is G or T) is introduced, the NNK sequence obtained by randomly replacing ATT and CTG sequences corresponding to amino acid positions 411 and 433 of α-2,6-sialyltransferase, thereby constructing a library. In α-2,6-sialyltransferase of the present invention, methionine is the first amino acid when counting from the first methionine sequence. In order to remove the original plasmid, the amplified gene of the sialyltransferase including the vector sequence was treated with Dpn enzyme and transformed into E. coli DH5a. Mutant genes were extracted from all of generated colonies and transformed into E. coli BW25113 (DE3). The transformed individual colonies were inoculated in the LB medium (500 μL) containing ampicillin in 96 well and shake-cultured at 30 to 37° C. for 18 to 24 hours, and then some of the culture liquid was inoculated in new LB medium (500 μL) containing 100 μg mL^−1 ampicillin and IPTG and cultured at 18 to 30° C. for 18 to 40 hours. […]
The wild type strain and mutants of sialyltransferase transformed into E. coli BW25113 (DE3) were expressed using the inducer IPTG in a culture volume of 50 mL, and purified to obtain only pure protein using Ni-NTA column, and specific activity and kinetic parameters were measured.

For the molecule “Pasteurella multocida α-2,3-sialyltransferase (α2,3PST) variant R313H (= R289H of SEQ ID NO: 1), SEQ ID NO: 3 (Pasteurella multocida; R313H)”, the Km in series [1] (R313H) was 3240 µM.
Consider “Pasteurella multocida α-2,3-sialyltransferase (α2,3PST) variant T265S (= T241S of SEQ ID NO: 1), SEQ ID NO: 4 (Pasteurella multocida; T265S)”, for which the Km in series [1] (T265S) was 2230 µM.
Turning to “Pasteurella multocida α-2,3-sialyltransferase (α2,3PST) variant R313H/T265S (= R289H/T241S of SEQ ID NO: 1), SEQ ID NO: 6 (Pasteurella multocida; R313H/T265S)”, in series [1] (R313H/T265S), the Km is 3940 µM.
Regarding “Pasteurella multocida α-2,3-sialyltransferase (α2,3PST) variant R313N/T265S (= R289N/T241S of SEQ ID NO: 1), SEQ ID NO: 5 (Pasteurella multocida; R313N/T265S)”, the Km in series [1] (R313N/T265S) came out at 3330 µM.
`OC[C@H]1O[C@@H](O[C@H]2[C@H](O)[C@@H](O)C(O)O[C@@H]2CO)[C@H](O)[C@@H](O)[C@H]1O` (stereo partly drawn) [Lac, lactose]: the “binding force with the acceptor substrate” value in series [2] is listed as “reduced”.
“Pasteurella multocida (ATCC15742) α-2,3-sialyltransferase (α2,3PST), wild type, SEQ ID NO: 1 (Pasteurella multocida)”: in series [1] (wild type), the Km was 1830 µM.
On to “Pasteurella multocida α-2,3-sialyltransferase (α2,3PST) variant R313N (= R289N of SEQ ID NO: 1), SEQ ID NO: 2 (Pasteurella multocida; R313N)”, for which the Km in series [1] (R313N) came out at 2510 µM.

B1: L433T (protein)
chain: MCNSDNTSLKETVSSNSADVVETETYQLTPIDAPSSFLSHSWEQTCGTPILNESDKQAISFDFVAPELKQDEKYCFTFKGITGDHRYITNTTLTVVAPTLEVYIDHASLPSLQQLIHIIQAKDEYPSNQRFVSWKRVTVDADNANKLNIHTYPLKGNNTSPEMVAAIDEYAQSKNRLNIEFYTNTAHVFNNLPPIIQPLYNNEKVKISHISLYDDGSSEYVSLYQWKDTPNKIETLEGEVSLLANYLAGTSPDAPKGMGNRYNWHKLYDTDYYFLREDYLDVEANLHDLRDYLGSSAKQMPWDEFAKLSDSQQTLFLDIVGFDKEQLQQQYSQSPLPNFIFTGTTTWAGGETKEYYAQQQVNVINNAINETSPYYLGKDYDLFFKGHPAGGVINDIILGSFPDMINIPAKISFEVLMMTDMLPDTVAGIASSTYFTIPADKVNFIVFTSSDTITDREEALKSPLVQVMLTLGIVKEKDVLFWA
modifications: L433T
Turning to B1, the “activity increase compared to the wild type strain” value in series [3] (mutant search by colorimetry) is on record as 3 times. The “Rel. Specific Ac (%)” value in series [3] (α2,6PdST, relative to wild type, purified protein, CMP-N-acetylneuraminic acid and lactose) was found to be 296%.

For the origin of these results see patent US9637768B2, “Method for preparing sialic acid derivative” (priority 2013, dated 2017).
